This is an account of results in article PMC6054644.

In assay [1] the target is rhodamine phalloidin F-actin (G-actin from Cytoskeleton, AKL99) (UniProt P68135). The assay can be described thus: ultrafast force-clamp spectroscopy (optical tweezers); single biotinylated myosin-5B on a streptavidin bead pedestal, single actin filament suspended between two trapped alpha-actinin beads; 25 mM MOPS pH 7.2, 25 mM KCl, 4 mM MgCl2, 1 mM EGTA, 2 uM CaM, 100 uM ATP; assistive and resistive forces 0.5-3 pN; no added Ca2+.

For assay [2], the target named is F-actin from rabbit skeletal muscle acetone powder (rabbit) (UniProt P68135).

For “biotinylated Avi-tag myosin-5B heavy meromyosin with bound calmodulin (from UniProt P21271 1-1095; P0DP29 1-149) (complex)”, in assay [1], the k0^+ (detachment rate from actin, exponential fit extrapolated to zero force, resistive forces, 100 µM ATP) is 0.64 s⁻¹ and the k0^− (detachment rate from actin, exponential fit extrapolated to zero force, assistive forces, 100 µM ATP) was 2.3 s⁻¹.

In turn, “myosin-5B heavy meromyosin with bound calmodulin (Flag-tagged) (from UniProt P21271 1-1095; P0DP29 1-149) (complex)” registered an actin-activated steady-state ATPase activity (NADH-coupled assay), Kapp for F-actin at 2000 µM ATP in assay [2] of 1.34 µM.
